{"source": "paper doi:10.1101/2023.06.13.544671", "target": "RSC chromatin remodeling complex with Sth1-3xFlag-HaloTag (S. cerevisiae) (UniProt P32597)", "test": "two-colour single-molecule colocalisation on DNA (optical tweezers with confocal microscopy); RSC-JFX554 with ISW2-JFX650, or RSC-JFX554 with RSC-JFX650, diffusing on naked lambda DNA stretched to 5 pN; 10 mM Tris pH 7.4, 50 mM KCl, 3 mM MgCl2, 0.1 mg/ml BSA, Trolox; colocalisation threshold 0.31 um (RSC-RSC) and 0.29 um (RSC-ISW2); single exponential fits of dwell times", "data": [{"substance": "RSC chromatin remodeling complex with Sth1-3xFlag-HaloTag (from UniProt P32597 1-1359)", "values": [{"measurement": "half-life of long colocalisation with co-diffusion, on DNA", "value": 0.7, "unit": "s"}]}, {"substance": "ISW2 chromatin remodeling complex with Isw2-3xFlag-HaloTag (from UniProt Q08773 1-1120)", "values": [{"measurement": "half-life of long colocalisation with co-diffusion, on DNA", "value": 0.68, "unit": "s"}]}]}
